Experimental data: the nanobody polyreactivity screen of Harvey et al. (2022)

Experiment: yeast display, Sf9 membrane polyspecificity reagent, FACS + sequencing; frameworks hold sequencing errors
Procedure, shortened: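 A synthetic nanobody library was expressed on Saccharomyces cerevisiae BJ5465 by galactose induction for 36–48 hours. The library was stained for 1 hour at 4 °C with 10% biotinylated, detergent-solubilized Sf9 membrane reagent and enriched with streptavidin microbeads before FACS. Low and high (top ~1%) gates were set on anti-HA fluorescence for expression and streptavidin fluorescence for reagent binding, and each polyreactivity label reflects the gate of origin.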

| Sequence | polyreactivity (PSR sort gate) |
| --- | --- |
| QVQLVESGGGLVQAGGSLRLSCAASGNIIRSYMGWYRQAPGKERELVASISRRGGSTYYADSVKGRFTISRDNAKNTVYLHMNSLKPEDTAVYYCARRWSWVNGVFGYYWGQGTQVSVSS | high polyreactivity |
| QVQLVESGGGLVQAGGSLRLSCAASGNILFYNSMGWYRQAPGKERELVAAISRSAGSTYYADSVKGRFTISRDNAKNTVYLQMNRLKAEDTAVYYCAAQYFRRSGYWGQGTQVTVSS | high polyreactivity |
| QVQLVESGGGLVQAGGSLRLSCAASGNILLFNAMGWYRQAPGKERELVATINQSGGRTYYADSVKGRFTISRDNAKNTVYLQMNSLKPEDTAVYYCNAPGSPVVQQPGYYWGQGTQVTVSS | low polyreactivity |
| QVQLVESGGGLVQAGGSLRLSCAASGNILRGYAMGWYRQAPGKERELVAAINRGGGSTYYADSVKGRFTISRDYAKNTVYFQMNSLKPEDTAVYYCAARYPHRGYTFDYWGQGTQVTVSS | low polyreactivity |
| QVQLVESGGGLVQAGGSLRLSCAASGNILWFNAMGWYRQAPGKERELVASISSSGGRTYYADSVKGRFTISRDNAKNTVYLQMNSLKPEDTAVYYCAAEYYYGWTYSGGLGFLGYNYWGQGTQVTVSS | low polyreactivity |
| QVQLVESGGGLVQAGGSLRLSCAASGNIRNYGLGWYRQAPGKERELVAAITVSGSRTYYADSVKGRFTISRDNAKNTVYLQMNSLKPEDTAVSYCAARGYNTLTRYDYWGQGTQVTVTS | high polyreactivity |
| QVQLVESGGGLVQAGGSLRLSCAASGNNFYINAMGSYRQAPGKERELVAAIRGGGSTYYADSVKGRFTISRDNAKNTVYLQMNSLKPEDTAVYYCAARGRRLNPQYRAFGMDYWGQGTQVTVSS | high polyreactivity |
| QVQLVESGGGLVQAGGSLRLSCAASGNSFSQYAMGWYRQAPGKERELVATISKSSGSTYYADSVKGRFTISRDNAKNTVYLQMNSLKPEDTAVYSCNAVSSDVYHHLGVLFFSTWYDYWGQGTQVTLSS | low polyreactivity |
| QVQLVESGGGLVQAGGSLRLSCAASGNTFAAYAMGWYRQAPGKEWELVAAITTSGGITYYADSVKGRFTISRDNAKNTVYLQMNSLKPEDTAVYYCAVDGGRWGQGTQVTVSS | low polyreactivity |
| QVQLVESGGGLVQAGGSLRLSCAASGNTFADYAMGWYSQAPGKERELVADLTFSGGGTYYADSVKGRFTISRDNAKNTVYLQMNSLKPEDTPVYDCNADLDSYVGDEYDHWGQGTQVTVSS | low polyreactivity |
| QVQLVESGGGLVQAGGSLRLSCAASGNTFAPYAMGWYRQAPGKERELVATISYRGGSTNYADSVKGRFTISRDNAKNTVYLQMNSLKPEDTAVYYCNARYRWVVNRYSASGGSYNYWGQGTQVTVSS | high polyreactivity |
| QVQLVESGGGLVQAGGSLRLSCAASGNTFAYNVMGWYRQAPGKERELVAAISRSGGSTYYADSVKGRFTISRDNAKNTVYLQMNSLKPEDTAVYYCAAVGRRVRPEGSYNRWGHDYWGQGTQVTVSS | high polyreactivity |
| QVQLVESGGGLVQAGGSLRLSCAASGNTFDEYAMGWYRQAPGKEREFVAAIRNTYYADSVKGRFTISRDNAKNTVYLQMNSLKPEDTAVYYCAKPSQLHPYEYWGQGTQVTVSS | low polyreactivity |
| QVQLVESGGGLVQAGGSLRLSCAASGNTFEYYTMGWYRKAPGKERELVASIDWSTTSTYYADSVKGRFTISRDNAKNTVYLQMNSLKPEDTAVYYCNTVYDYYHLGLYSGFRYHYWGQGTQGTVSS | low polyreactivity |
| QVQLVESGGGLVQAGGSLRLSCAASGNTFGHYTMGWYRQAPGKERELVAAISWDDSSTNYADSVKGRFTISRDNAKNTVYLQMNILKPEDTAVYYCAKETELRTQYPYVYDYWGQGSQVTVSS | low polyreactivity |
| QVQLVESGGGLVQAGGSLRLSCAASGNTFGPYDMGWYRQSPGKERELVAGITSGGSTYYADSVKGRFTISRDNAKNTVYLQMNSLKPEDTAVYYCAADDYLWVYWYDYWGQGTQVTVSS | high polyreactivity |
| QVQLVESGGGLVQAGGSLRLSCAASGNTFGRYAMGGYRQAPGKERELVAAISWSGGSTYSADSVKGRFTISRDNAKNSLYLQMNSLKPEDTAVYYCAANSWRGFEYWGQGTQVTVSS | high polyreactivity |
| QVQLVESGGGLVQAGGSLRLSCAASGNTFGYNAMGWYRQAPGKERELVASITWSGGSTYYADSVKGRFTISRDNAKNTVYLEMKSLKPEDTAVYYCNADVRYGRDHWGQGTQVTVSS | low polyreactivity |
| QVQLVESGGGLVQAGGSLRLSCAASGNTFIDYAMGWYRQAPGKERELVASITSGGGSTYYADSVKGRFTISRDNAKNTVYLQMNSLKPEDTAVYYCAAERYYSEAIFRSYDYWGQGTQVTVSS | low polyreactivity |
| QVQLVESGGGLVQAGGSLRLSCAASGNTFIPNAMGWYRQAPGKERELVAAIRASGGSTYYADSVKGRFTISRDNAKNTVYLLMNSLKPEDTAVYYCNDDIWYKTYDYWGQGTQVTVSS | low polyreactivity |
| QVQLVESGGGLVQAGGSLRLSCAASGNTFIRNVMGWYRQAPGKERELVAGSRTGGSTFYADSVKGRFTISRDNAKNTVYLQMNSLKPEDTAVYYCNADVGDEGNLPYVIRPMDYWGQGTQVTVSS | low polyreactivity |
| QVQLVESGGGLVQAGGSLRLSCAASGNTFKGYAMGWYRQAPGKERELVAAISWSGSSTYYADSVKGRFTISRDYAKNTVYLQMNILKPEDTAVYYCNRKYLGRYASVYGYGYWGQGTQVTVSS | high polyreactivity |

| Sequence | polyreactivity (PSR sort gate) |
| --- | --- |
| QVQLVESGGGLVQAGGSLRLSCAASGNTFLIYAMGWYRQAPGKERELVAGITSSGSTYYADSVKGRFTISRDNAKNTVYLQMNSLKPEDTAVFYCAAEYIFYLYYDTAELYDYWGQGTQVTVSS | low polyreactivity |
| QVQLVESGGGLVQAGGSLRLSCAASGNTFLRYAMGWYRQAPGKERELVAAISRSGGSTYYADSVKGRFTISRDNAKNTVYLQMNSLKPEDTAVYYCATRVYFSPYRYDYWGQGTQVTVSS | high polyreactivity |
| QVQLVESGGGLVQAGGSLRLSCAASGNTFLYYSMGWYRQAPGKEMELVASINLSDGSTYYADSVKGRFTISRDNAKNTVYFQMNSLKPEDTAVYYCAAVYGGYTIYDYWGQGTQVTVSS | low polyreactivity |
| QVQLVESGGGLVQAGGSLRLSCAASGNTFNENAMGWYRQSPGKERELVAAITSSGVSTFYADSVKGRFTISRDNAKNTVYLQMNSLKPEDTAVYYCAAEYYELDEYTGDYWVGSDYWGQGTQVTVSS | low polyreactivity |
| QVQLVESGGGLVQAGGSLRLSCAASGNTFNLYAMGWYRQAPGKERELVASMTSGGGTNYADSVKGRFTISRDNAKNTVYLQMNSLKPEDTAFFYCAATDWFSEYYWGQGTQVTVSS | low polyreactivity |
| QVQLVESGGGLVQAGGSLRLSCAASGNTFNVYAMGWYRQAPGKERELVAAITLSGGSTYYADSVKGRFTFSRDNAKNTVYLQMNSLKPEDTAVYYCNAEDDGTDYDYWGQGTEVTVSS | low polyreactivity |
| QVQLVESGGGLVQAGGSLRLSCAASGNTFNYNAMGWYRQAPGKERELVAAITSSGGSTYYADSVKGRFTISRDYAKNTVYLQMNSLKPDDTAVYYCAADLWQDSYSYWFDYWGQGTQVTVSS | high polyreactivity |
| QVQLVESGGGLVQAGGSLRLSCAASGNTFPVYAMGWYRKASGKERELVATITSGGSTNYADSVKGRFTFSRDNAKNTVYLQMNSLKPEDTAVYYCARRAVYSKRRYDYWGHGTQVTVSS | low polyreactivity |
| QVQLVESGGGLVQAGGSLRLSCAASGNTFPVYAMGWYRQASGKERELVATITSGGSTNYADSVKGRFTISRDNAKNTVYLQMNSLKQEDTAVYYCARRAVYSKRRYDYWGQGTQVTVSS | low polyreactivity |
| QVQLVESGGGLVQAGGSLRLSCAASGNTFQDYAMGWYRQAPGKERELVAAITQSGGSTFYADSVKGRFTISRDNAKNTVYLQMNSLKPEDTAVYYCATRTRYPRYYYWGQGTQVTVSS | high polyreactivity |
| QVQLVESGGGLVQAGGSLRLSCAASGNTFQWYVMGWYRQAPGKERELVAAITTRGGSTYYADSVKGRFTISRDNAKNTVYLQMNSLKPEDTAVYYCAKDWYASWYTKYDYWGQGTQVTVSS | low polyreactivity |
| QVQLVESGGGLVQAGGSLRLSCAASGNTFRAYAMGWYRQAPGKERELVATITWSGGITDYADSVKGRFTISRDNAKNTVYLQMNSLKPEDTAVYYCAARSYRWWNFNYWGQGTQVTVSS | high polyreactivity |
| QVQLVESGGGLVQAGGSLRLSCAASGNTFREYGMGWYRQAPGKERELVAAISSTGSTNYADSVKGRFTISRDNAKNTVYLQMNSLKPEDTAVYYCNRDRVWGSGVRTRGDYWGQVTQVTVSS | low polyreactivity |
| QVQLVESGGGLVQAGGSLRLSCAASGNTFRLYGMGWYRQAPGKERELVAAIRSGDRTYYADSVKGRFTISRDNAKNTVYLQMNSLKPEDTAVYYCAARVNLSKLFGYWGQGTQVTVSS | high polyreactivity |
| QVQLVESGGGLVQAGGSLRLSCAASGNTFRRYAMGWYRQAPGKERELVAAISYRGGSTYYADSVKGRFTISRDNAQNTVYLQMNSLKPEDTAVSYCNARFATSVLYDYWGQGTQVTVSS | high polyreactivity |
| QVQLVESGGGLVQAGGSLRLSCAASGNTFRYYAMGWYRQAPGKERELVAAISGDGGSTYYADSVKGRFTISRDNAKNTVYLQMNSLKPEDTAVYYCNKAGRRRYRESDYWGQGTQVTVSS | high polyreactivity |
| QVQLVESGGGLVQAGGSLRLSCAASGNTFSDYAMGWYRQAPGKERELVAAISSSGVRTYYADSVKGRFTISRDNAKNTVYLQMNSLKPEDTAVYYCNAGYVRRYYPASGYGYWGQGTQVTVSS | high polyreactivity |
| QVQLVESGGGLVQAGGSLRLSCAASGNTFSPNAMGWYRQAPGKERELVAALDSRDGITYYADSVKGRFTISRDNAKNTVYLQMNSLKPEDPAVYYCNAEGSYPDVSPVLGYDYWGQGTQVTVSS | low polyreactivity |
| QVQLVESGGGLVQAGGSLRLSCAASGNTFSQYAMGWYRQAPGKERELLAAISGSGGDTYYADSVKGRFTISRDNAKNTVYLQMNIMKPEDTAVYYCNADQESVFYEDYDYWGQGTQVTVSS | low polyreactivity |
| QVQLVESGGGLVQAGGSLRLSCAASGNTFSSNAMGWYRQAPGKERELVAGITKSGGRTYYADSVKGRFTISRDNAKNTVSLQMNSLKPEDTAVYYCAAVGSTVFGTRYYYWGQGTQVTVSS | high polyreactivity |
| QVQLVESGGGLVQAGGSLRLSCAASGNTFSYYAMGWYRQAPGKEREFVAAIRKSGASTYYADSVKGRFTISRDNAKNTVYLQMNSLKPEDTAVYYCAADGQVSYALGFDYWGQGTQVTVSS | high polyreactivity |
